Assay results as given in article PMC9007600.

Biological target: tralokinumab half molecule (human)

dissociation half-life: 16.8 h
B1: tralokinumab half molecule (antibody, V domains shown)
VH: QVQLVQSGAEVKKPGASVKVSCKASGYTFTNYGLSWVRQAPGQGLEWMGWISANNGDTNYGQEFQGRVTMTTDTSTSTAYMELRSLRSDDTAVYYCARDSSSSWARWFFDLWGRGTLVTVSS
VL: SYVLTQPPSVSVAPGKTARITCGGNIIGSKLVHWYQQKPGQAPVLVIYDDGDRPSGIPERFSGSNSGNTATLTISRVEAGDEADYYCQVWDTGSDPVVFGGGTKLTVL
